Results: the supplement of paper PMC12042874
± gives the uncertainty stated by the source.

Assay: amyloid nucleation score (Sup35N fusion, yeast selection) (log enrichment); library NNK2; higher = more nucleation; inactive = no reads after selection
Summary of the method: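 Output and input plasmid inserts were sequenced by Illumina after psi-negative yeast carrying Sup35N fused to peptides of 20 random codons had been induced 24 hours with 100 μM copper sulfate and grown 7 days at 30°C on medium lacking adenine and uracil. The nucleation score is the DiMSum log enrichment of output over input reads, centred on the mode score of non-aggregating sequences. Sequences with under 100 input reads were excluded.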
In the case of TEVGCYFYTWRICIYNDTRA, the amyloid nucleation score is reported as 2.28 ± 0.11. With TFCVNFARRVSLRSVLATIG the amyloid nucleation score was 0.034 ± 0.43. TFDLQFELFMGDRTLSLL gave an amyloid nucleation score of -0.038 ± 0.29. TFFLITDTSVMEEM gave an amyloid nucleation score of 0.072 ± 0.79. TFGCEPVGPVA showed an amyloid nucleation score of 0.409 ± 0.8. For TFGLA, the amyloid nucleation score was 1.06 ± 0.4. In the case of TFGTQELELTD, the amyloid nucleation score is reported as “inactive”. Substance TFKVVSKDNI has an amyloid nucleation score of -0.317 ± 0.41. For TFLWLLLY, the amyloid nucleation score was 6.754 ± 0.034. With TFMTAMVVWSVSLGYPLLRR the amyloid nucleation score was 1.24 ± 0.23. For TFNVYTVSLDVCDYRGGHGL, the amyloid nucleation score was 6.602 ± 0.049. Substance TFNYHVTYFLGHFFSTYGRF has an amyloid nucleation score of 3.49 ± 0.064. In the case of TFRDYQYMYFRSRNII, the amyloid nucleation score is reported as 0.034 ± 1.1. With TFRPFQVTSHVSLRDMMGIS the amyloid nucleation score was 0.132 ± 0.3. In the case of TFSCCACWGCFTRNV, the amyloid nucleation score is reported as 10.55 ± 0.047. With TFSLAVVYRFDDAFTLRVGD the amyloid nucleation score was 6.135 ± 0.05. For TFSWMTPNWRSHYMLDCDPG, the amyloid nucleation score was -0.502 ± 0.79. In the case of TFWTANISSADTSSFFY, the amyloid nucleation score is reported as 0.272 ± 0.34. In the case of TGAVKLTSAAIINCTYHARM, the amyloid nucleation score is reported as “inactive”. TGAWLALFLGRHAKWLALFM gave an amyloid nucleation score of 0.817 ± 0.26. With TGCLLWCLLSMEGRESFQDD the amyloid nucleation score was -0.504 ± 0.78. Substance TGCTFCKSMCLYGETSRKDN has an amyloid nucleation score of 0.132 ± 0.36. With TGDCRT the amyloid nucleation score was 0.233 ± 0.2. For TGDSVGLGLLGSWRNEKVCD, the amyloid nucleation score was 0.088 ± 0.3. Work on TGGTVMRVR yielded an amyloid nucleation score of 0.297 ± 0.29. In the case of TGIDHYFWLFFSYLGTLWSK, the amyloid nucleation score is reported as “inactive”. Work on TGKLCSSIKWWGT yielded an amyloid nucleation score of 1.06 ± 0.39. For TGLVFYSSRFYVTVSMVLKE, the amyloid nucleation score was “inactive”. With TGLYFLNSWIIMLRL the amyloid nucleation score was 4.434 ± 0.033. For TGQSHFSWQYLRTAAVYSRR, the amyloid nucleation score was 0.569 ± 0.27. In the case of TGRWCVVGHRKSS, the amyloid nucleation score is reported as -0.056 ± 0.34. TGYFTARNSAEVKRHVNLKR gave an amyloid nucleation score of 0.169 ± 0.8. For TGYHNLMGVLGMVAVKHELG, the amyloid nucleation score was -0.09 ± 0.25. THLLIIDIVKYRKHIL gave an amyloid nucleation score of 0.255 ± 1.1. In the case of THYTDIIFFQEGLY, the amyloid nucleation score is reported as “inactive”. In the case of TIALPNFVWPKSSRKVYFS, the amyloid nucleation score is reported as -0.748 ± 0.32. With TIGHCTEWAINMSYVFNRGY the amyloid nucleation score was 3.74 ± 0.053. TIGPNKMRVEAGLEFQKLGK gave an amyloid nucleation score of -1.23 ± 0.76. With TIHSSPTVGLGNIWFVTNSH the amyloid nucleation score was 6.87 ± 0.052. Work on TIKLYRNMWEQLVQTEPSRT yielded an amyloid nucleation score of 0.045 ± 0.79. TINMNIYFIVRVDPSFDNVV showed an amyloid nucleation score of 6.88 ± 0.064. With TINTAMWTWSITETLPYCTW the amyloid nucleation score was 4.03 ± 0.06. For TISIFGM, the amyloid nucleation score was -0.325 ± 0.33. Work on TISWFLETYVRSLFPRVGRG yielded an amyloid nucleation score of -0.035 ± 0.33. With TISYKELLFANRFRELQPAD the amyloid nucleation score was 0.299 ± 0.49. Work on TITCLFKVRRCVYV yielded an amyloid nucleation score of -0.325 ± 0.55. TITPKSSICNPLRDNSYSVV showed an amyloid nucleation score of 0.136 ± 0.65. TIVLGSPANHHTLKCKERGK gave an amyloid nucleation score of 0.197 ± 0.56. TIYWECYMDILARSGAMWVW showed an amyloid nucleation score of -1.34 ± 0.49. For TKNACMPRGQGRMAPLRCCL, the amyloid nucleation score was 0.857 ± 0.51. With TLDGMQMSWFRNGV the amyloid nucleation score was 3.93 ± 0.13. In the case of TLDYGIFTVVNSTLWLYRSV, the amyloid nucleation score is reported as “inactive”. Substance TLFRKL has an amyloid nucleation score of -0.543 ± 0.44. In the case of TLGTIPIWTEIRPEYNSPLM, the amyloid nucleation score is reported as 0.371 ± 0.51. With TLIIWLTSICVVSGFVLSGE the amyloid nucleation score was 0.137 ± 0.25. For TLKYSVVNTLMTSMHDF, the amyloid nucleation score was 3.56 ± 0.082. For TLLDKLK, the amyloid nucleation score was “inactive”. For TLLSTEMHDYKLLARQRCHP, the amyloid nucleation score was 1.24 ± 0.38. Substance TLLVKSKDYRNANSG has an amyloid nucleation score of 0.185 ± 0.5. Work on TLNRTW yielded an amyloid nucleation score of 0.166 ± 0.16. For TLNYSVEQPYAVIILGCKLA, the amyloid nucleation score was 3.56 ± 0.083. With TLRVS the amyloid nucleation score was -0.207 ± 0.36. For TLSSYLVALNQRGAGSLWYV, the amyloid nucleation score was 0.825 ± 0.8. Substance TLVLFGTLISMLQL has an amyloid nucleation score of 6.24 ± 0.073. In the case of TLWVDRVREMC, the amyloid nucleation score is reported as -0.809 ± 0.36. TLYQCEEDMSGYDNVNDLAY showed an amyloid nucleation score of -0.331 ± 0.27. TMDNISSNSFDACSICSYWY gave an amyloid nucleation score of 9.385 ± 0.081. For TMDYRTND, the amyloid nucleation score was 0.443 ± 0.23. In the case of TMGGSGDGRY, the amyloid nucleation score is reported as “inactive”. TMGYNFRCYVPLMNMLVRGV showed an amyloid nucleation score of -0.614 ± 0.54. Substance TMILKWESRCERGPGEVRLV has an amyloid nucleation score of 6.204 ± 0.052. With TMRHQNASWLGVYINSSRKY the amyloid nucleation score was 3.72 ± 0.078. In the case of TMYYRNRGLVSEPKNYNGNE, the amyloid nucleation score is reported as -0.246 ± 0.61. Work on TNCSYMMYAAKVSQKYPPFP yielded an amyloid nucleation score of -0.567 ± 1.1. For TNIYLGMIVRVHLLFLMELA, the amyloid nucleation score was -0.891 ± 1.1. Substance TNLFVSLPQPSVVKSSGSLQ has an amyloid nucleation score of 0.212 ± 0.31. Work on TNRNKRWRYLTLFV yielded an amyloid nucleation score of 0.545 ± 0.37. Substance TNSGMWGKLSACFYFVMQYL has an amyloid nucleation score of -0.936 ± 0.27. With TNSRRCSYSLTPPSGTNRCQ the amyloid nucleation score was -0.053 ± 0.54. With TNSTPPVKLYWIMKLLDRFR the amyloid nucleation score was “inactive”. In the case of TNSYANMSGTAGNYRSYNIA, the amyloid nucleation score is reported as -0.522 ± 0.63. In the case of TNTCFFSNGGRTSKWHPVLV, the amyloid nucleation score is reported as 0.135 ± 0.56. Substance TPDAGMWNYECYIVTVW has an amyloid nucleation score of -0.615 ± 0.49. TPLYFRYVTIHYRGHVKVDV gave an amyloid nucleation score of 0.688 ± 0.81. For TPVQDNYSYFIFKPIDESIA, the amyloid nucleation score was 2.19 ± 0.12.
